Source: US20150057236A1

How the values were obtained:
Assay in all cases: cell-based or functional assay
human Sirt5 (human) = human Sirt5 (human) (UniProt Q9NXA8)
human Sirt3 (human) = human Sirt3 (human) (UniProt Q9NTG7)
human Sirt2 (human) = human Sirt2 (human) (UniProt Q8IXJ6)
human Sirt1 (human) = human Sirt1 (human) (UniProt Q96EB6)
Chain of human Sirt1 (human) (Q96EB6 whole entry): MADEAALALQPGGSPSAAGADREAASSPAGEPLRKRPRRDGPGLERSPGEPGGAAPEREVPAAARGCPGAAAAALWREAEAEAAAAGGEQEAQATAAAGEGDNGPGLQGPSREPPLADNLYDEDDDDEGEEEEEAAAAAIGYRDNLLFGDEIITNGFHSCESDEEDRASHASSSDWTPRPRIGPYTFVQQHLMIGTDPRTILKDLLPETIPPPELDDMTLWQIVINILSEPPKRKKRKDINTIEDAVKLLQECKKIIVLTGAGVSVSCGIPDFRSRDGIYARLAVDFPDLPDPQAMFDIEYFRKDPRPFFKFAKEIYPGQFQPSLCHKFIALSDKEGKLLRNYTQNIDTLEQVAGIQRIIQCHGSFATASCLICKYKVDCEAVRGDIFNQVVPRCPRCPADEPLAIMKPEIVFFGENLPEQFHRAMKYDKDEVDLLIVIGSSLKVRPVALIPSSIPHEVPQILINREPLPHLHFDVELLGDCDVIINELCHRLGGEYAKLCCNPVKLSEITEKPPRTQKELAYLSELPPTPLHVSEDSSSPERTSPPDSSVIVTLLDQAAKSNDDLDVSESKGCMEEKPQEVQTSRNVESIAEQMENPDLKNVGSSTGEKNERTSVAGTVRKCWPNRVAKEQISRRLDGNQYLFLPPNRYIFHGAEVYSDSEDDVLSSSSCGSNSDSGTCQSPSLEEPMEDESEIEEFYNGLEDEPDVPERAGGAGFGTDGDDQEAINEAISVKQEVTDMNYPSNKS

Chain of human Sirt3 (human) (Q9NTG7 102-399 limits assumed): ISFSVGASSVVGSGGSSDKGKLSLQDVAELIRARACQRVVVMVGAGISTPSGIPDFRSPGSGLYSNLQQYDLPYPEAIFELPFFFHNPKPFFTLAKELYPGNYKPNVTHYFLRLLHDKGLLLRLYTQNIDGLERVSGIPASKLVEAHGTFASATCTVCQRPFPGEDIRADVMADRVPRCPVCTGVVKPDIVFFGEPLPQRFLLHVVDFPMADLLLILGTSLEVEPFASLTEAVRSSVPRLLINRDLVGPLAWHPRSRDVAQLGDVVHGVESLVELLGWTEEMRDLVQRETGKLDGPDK
Chain of human Sirt2 (human) (Q8IXJ6 whole entry): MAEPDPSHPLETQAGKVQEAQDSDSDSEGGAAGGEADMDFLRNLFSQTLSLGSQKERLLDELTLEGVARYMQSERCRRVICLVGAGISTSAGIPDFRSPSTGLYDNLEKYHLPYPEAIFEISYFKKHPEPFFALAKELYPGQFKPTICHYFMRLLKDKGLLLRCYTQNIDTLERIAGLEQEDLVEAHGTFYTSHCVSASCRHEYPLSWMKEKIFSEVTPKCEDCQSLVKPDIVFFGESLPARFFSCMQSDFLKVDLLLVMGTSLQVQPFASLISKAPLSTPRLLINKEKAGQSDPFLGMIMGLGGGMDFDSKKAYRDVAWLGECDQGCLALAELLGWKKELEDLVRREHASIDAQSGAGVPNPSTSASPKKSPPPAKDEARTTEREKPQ
Chain of human Sirt5 (human) (Q9NXA8 whole entry): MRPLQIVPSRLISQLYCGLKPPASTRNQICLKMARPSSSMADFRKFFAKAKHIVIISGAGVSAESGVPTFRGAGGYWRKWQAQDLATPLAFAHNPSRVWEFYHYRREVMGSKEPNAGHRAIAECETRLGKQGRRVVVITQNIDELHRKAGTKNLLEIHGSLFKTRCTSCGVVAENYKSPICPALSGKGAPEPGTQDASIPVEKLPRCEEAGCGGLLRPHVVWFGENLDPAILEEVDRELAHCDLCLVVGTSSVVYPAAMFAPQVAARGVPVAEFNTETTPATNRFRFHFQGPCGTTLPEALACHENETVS

IC50 (µM), inhibition of sirtuin deacylase activity (human Sirt5 (human)): > 100 µM
IC50 (µM), inhibition of sirtuin deacylase activity (human Sirt3 (human)): 2 µM
IC50 (µM), inhibition of sirtuin deacylase activity (human Sirt2 (human)): 2 µM
IC50 (µM), inhibition of sirtuin deacylase activity (human Sirt1 (human)): 1 µM
Substance: H3K9 thioacetyl peptide (H3K9 TAc)
